Results: the supplement of paper PMC12636428

test system: Saccharomyces cerevisiae; assay: transcriptional activation domain activity (GFP:mCherry ratio, weighted mean of sorted bins, harmonized to initial dataset scale) (arbitrary fluorescence ratio units); higher = stronger transcriptional activation; conditions: beta-estradiol 1 µM; induction time 4 h
Procedure, shortened: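 Each value is an activation activity: the read-weighted mean of bin median fluorescence, averaged across barcodes, then mapped linearly to the initial dataset scale. The tiles, fused to an estradiol-inducible synthetic transcription factor, sat at the yeast URA3 locus in GFP-reporter diploids. Cells spent 4 hours at 30 °C in SC with 1 uM beta-estradiol before sorting into 8 GFP:mCherry bins, and tiles below 50 reads were removed.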

Going from “RDNESYSATNNNNLLRPDDNDYNNEALSDIDRSFEDIINGRKLKLKKSRRRSS” to “RLFGRGQWTLGRVIFFVFFYFNVAPLMLGVSMVCWFMVFWIPMGRVTLILFYH”, the “transcriptional activation domain activity” value rises from 15300 to 85300.

Compared with “FFLALSFKDPFRWLYQFNMDPSLCTEKYLGSNLCVNQNLITLGFMLLLDLVLF”, “TPLRISLFLVRVRCRHPSYSKWLPVEIKRCGVLLMSRLSLSLYRIFLNHITLN” is lower in “transcriptional activation domain activity” value: 67300 for the first, 59900 for the second.

First: TLPGGTTGEFGRDRPTTNAFGSSTGAFGAPAANNNPFGAPAQPAGAFGQPSAL
Second: LLSLPNYFGIVFQVLKPEITTMYIAALDLCNLHTLYKAILFTLLALTWLILVF
The “transcriptional activation domain activity” value of the first is lower: 44800 for the first, 50500 for the second.

Compared with “NHWVFGAFSECFIPGVFLSLHPLTFFLDWTIGFVSDVYTFDAHDPSILELLIF”, “IRQLFGNYVLLYFFPWGFGCGFLPVLFPVQTCRIYHYLLFYFFFLSPFFFSIP” is lower in “transcriptional activation domain activity” value: 47000 for the first, 36700 for the second.

First: MLEGILGWSKWQKYSIKWYIWLPRLFFQSFFPFFSCPISLQKFSVLLFHFFFL
Second: GSTQAVDLIAYGGYKFVGVITTLISGFEFLHLGRSIYTMVFLYSFLSNAFFLL
The “transcriptional activation domain activity” value of the first is lower: 59700 for the first, 63600 for the second.

First: DLAPVQPVQKQARRRSGPACEGCKARKTKCDGKRPTCGSCVDKRHCVYADASV
Second: NILFHKLFYAYENVLVIISLIYKKKPLGRLQNTRKCSSINVLCNYILEYGRKY
The “transcriptional activation domain activity” value of the first is lower: 21900 for the first, 42100 for the second.

Going from “MSMGIEFPFFTFRFSPSPLLLLLPFPPPFLPPFCLSAFFPSPLSPLPFPFLPS” to “AQLHHRTWLIHWSLFPFFNFEPAKETLTEMFFSPAYINTIQTNCPWILRYLAA”, the “transcriptional activation domain activity” value rises from 51400 to 56700.

Compared with “MEGGRGSRGSHENNELFFFLSLHSRFFFFYLFIYFSLLFFSFTIYFMVFFFFF”, “MGNVQRWAVAIKNVIAVLVVCLRFITDTFIIATSEYPRGGFLVLLHIRMLFML” is higher in “transcriptional activation domain activity” value: 54600 for the first, 81400 for the second.

Going from “MVLLTFSLICNSCATVLELSEHLPVPWDVFCQHMCVRFLLPLLRVAAHALTSA” to “KCCVHVHQVYPYFFVEYFGKMRLRSGQLSALTFGAELQYTRVLIHVGVHFYGF”, the “transcriptional activation domain activity” value rises from 43000 to 47400.

Compared with “MKFCFIVWLSCMCIYFAKVIVVFLIALCLDNIFPFHIPNTKLLIPSTHFMITW”, “EALPDDLYFTDFVSPFTAAATTSVTTKTVKDTTPATNHMDDDIAMFDSLATTQ” is lower in “transcriptional activation domain activity” value: 57500 for the first, 47700 for the second.

First: EPQPPPKAEPPPEPEPEPVPKAEAPPPPREEPPPPKKAPPPPKPEPTPAPAPT
Second: SLSRKKRGRGRPKGSKNKKSGDGAASSAAPSGDATGKRKRGRPPKEKPAEATA
The “transcriptional activation domain activity” value of the first is lower: 38600 for the first, 44300 for the second.

Compared with “HVDSYLRYLISHCKGRISSRGLVTARFLERRMRHLVWLLKVECVKWEYSPYTR”, “DNDDDGETAAGGRLAHLLQILVCNAIYSFEPLLNCSQDVNNVLVVVTRYYGGI” is lower in “transcriptional activation domain activity” value: 79400 for the first, 57500 for the second.

First: MFCLRSWLPLLFIPTNAPPVFVFLFFACTFFLSRPCVYCSFLLLILFFTSCYW
Second: MGFKDFPFVDFAVFFFFFFSPFFSSMFILSFIYLFWFDLGIGLVGVLLFFFCH
The “transcriptional activation domain activity” value of the first is higher: 52700 for the first, 47500 for the second.

First: GQVELFTHHTSLRHIFFRLEKLGYRLVVIQLTDSFVISQPSLYISALLLALRG
Second: MNGDRDSGRSRDHYSSRGDRDDRRDRDRDRRRRSRSPGHRSSRRDYEVDTYSS
The “transcriptional activation domain activity” value of the first is lower: 35400 for the first, 45700 for the second.

Compared with “ERKDREKMKAKLKEAKREKQRKERAREREKERERKRKEKEKEKKRKEKERERK”, “DVPEEKKAESEKVDSDQEKAESEAKKIDETPAKETADKPEEKSEDKAEDKAAE” is lower in “transcriptional activation domain activity” value: 38000 for the first, 26100 for the second.

Compared with “MNAVQASGLVISLVLYVAVVFILLAGPLLFFLCYFFFLISITFPVHLPPMRVS”, “CIIFPHPFFSYSFFSFSPLFFFFFPSFLSFLSFLPSFLFFFSIVTPSSSSSTY” is lower in “transcriptional activation domain activity” value: 63800 for the first, 55100 for the second.

First: MDLFFLLHFFIFIFLWHWLGSCLVWLFLVWLWGVFSFFFYYIFSCVSFFGSAI
Second: GACLQDIAMVGFIDTNSIGCVASSVVLYLSLVFIIGVVAIRFFMAVMFQWFFS
The “transcriptional activation domain activity” value of the first is higher: 61300 for the first, 35600 for the second.

Compared with “LNPDYIVGLSSLILVMCYIYKACYVSLLLSMHPLILLCMLCSSFTFIAIIVMI”, “TFVERVYTCLNYRIYKIKILGGTCALLIFVWYFPGFVLRNVLVGMLGHVVLSI” is higher in “transcriptional activation domain activity” value: 47700 for the first, 65400 for the second.

First: MSRVRLAPEGHMFFFVLIVFIFCFFCLFLFLAGDLKGGWLFFLRFGMGWVFLG
Second: MLRLLFWYLLIFVCLFCSSSPSYLSIFCLFFLCLIFIPSSSYILLPFLFLTLY
The “transcriptional activation domain activity” value of the first is lower: 21600 for the first, 37500 for the second.

Compared with “HISCLIISVFLCELMVHIPLSTLFYVGLYFPVHFISTPGYFYFIYCILFQLFL”, “VVALVADPEFQRELAYVLCGQSILVRWPAKILNGLWLYCHLLQQAILPWFIFY” is higher in “transcriptional activation domain activity” value: 47300 for the first, 52600 for the second.

Going from “VIHLMNMGQVSILFIHRFIYGVVPLFEIVSCSFWPLLVSLWHLDYILIYLIMF” to “GSETTQEQRNIEGTDHGSGGGGGGSGEGGGGNEGGGGGGGGGSGGGGKGGGGE”, the “transcriptional activation domain activity” value falls from 46300 to 30000.

First: QFFFFVLSFFFFVGFVGADDLCSFILFLLFFSTPFFFIGKASLLSSFFAFHST
Second: QLNLVNHFYQFSLRFFLDIFDYILHHNPNLKGVTDYSRRRAILLNDLFLVVYQ
The “transcriptional activation domain activity” value of the first is lower: 51700 for the first, 55500 for the second.

First: MAKSDPHQPGRIRAFKPKVSTGCKTCKIRRVKCDEAKPACKRCSSTGRKCDGY
Second: SVYCLLLILFIPYPFSDVFAKCKHASLEGLACGDFPHNQLSIYLAAILCLLIA
The “transcriptional activation domain activity” value of the first is lower: 16300 for the first, 49800 for the second.

Going from “PLVVDFPQAVEYFPEMALKYMMCWLSRFDLLPGERLGCRVLAAFIHLTIHRVS” to “MYLWVLLQKVGLLLLLLLLLLLLLLLLLLHWLLHLLLLLLLLLLLLYQVCLQW”, the “transcriptional activation domain activity” value falls from 57200 to 23400.

Compared with “AAATTADAKPASSAADKASSSVAAASAGQATASTDSGTAKAEKKKKGKAAAVA”, “MLSLFSETGCTFLLVGLSIVVGVEKGSFLFYFVYLFTLYLYCGPILLGKLIFM” is higher in “transcriptional activation domain activity” value: 8920 for the first, 49800 for the second.

Going from “YQLASDRSADCGLLRLVLDAQTFGATAAVIVLDWARPWRFIKSLLRWMHVLST” to “TSAFGQTNNAASPFGGTSNTAAGGFGSPATGGFGTNTAGGAFGSKPAFGATTT”, the “transcriptional activation domain activity” value falls from 42000 to 38300.

First: KSKSSRSSRRREGEEDDDRRRRRHRHRSRSRSRSRGRGGGSDDGSKEQRRSSR
Second: MGLGFFSFFLSVFSFFLFPFFFFGCEFIYLFLVFWWRVDFSPMAERHSVEAGP
The “transcriptional activation domain activity” value of the first is lower: 40100 for the first, 53000 for the second.

First: TNNWNPVHWDWNIFRQIVNFNWVLLFYFIFLLFSLFFHFIPVSCISIFYYFFS
Second: YVASQLIEIFLPEALFSVVYLSNAGKCLSREEFLVQFTFLVRLFKHEFVYPWN
The “transcriptional activation domain activity” value of the first is lower: 25100 for the first, 30700 for the second.

Compared with “GRNAGREDNSNNRNRRGDRRGAPREARAGGNTNGQQQQQQKKGGAPKAAAVDP”, “SLIGIGITILQQLSEISFLPMTTFNISRCLWRLSLLTILACVNFGPSIYIFWF” is higher in “transcriptional activation domain activity” value: 35600 for the first, 51500 for the second.

Compared with “YYVPLLASPTFWAVTLPLYCVFVGIQVFFVFLEAAGLSLHLVVIFWWLGWWAG”, “EPAAEGAAGADKPAEEAKPAEDKPAETKPEETAEGAKTEETPAPAESAAAPAA” is lower in “transcriptional activation domain activity” value: 53000 for the first, 37800 for the second.

With “NLFGWVRYAGVSVDHLKVHIVGAELWNRYKYAAGIWGYRALPIIALMASLIAC” the “transcriptional activation domain activity” value was 54200.
